Data on nine substances can be found in patent US20250320281A1.

Common to all, as to assay: cell-based or functional assay
Assay [1] concerns the target HIV-1 94UG103 envelope glycoprotein (Env) on pseudovirus (HIV-1).
The target of assay [2] is HIV-1 Env of isolate 98CN009 (CRF07 BC) (HIV-1 isolate 98CN009).
Assay [3] addresses HIV-1 Env of isolate MGRM-D-008 (clade D pseudovirus) (HIV-1).
The target of assay [4] is HIV-1 Env of isolate MGRM-D-016 (clade D pseudovirus) (HIV-1).
Assay [5] addresses HIV-1 Env of isolate MGRM-D-019 (clade D pseudovirus) (HIV-1).
Assay [6] deals with HIV-1 Env of isolate SC422661.8 (Acute), clade B, on pseudovirus (HIV-1).
In assay [7] the target is HIV-1 Env of isolate VLGCB3, clade B, on pseudovirus (HIV-1).
Assay [8] addresses HIV-1 Env of pseudovirus MGRM-AG-012 (clade CRF_AG) (HIV-1).
In assay [9] the target is HIV-1 Env of pseudovirus MGRM-Chronic-B-012 (HIV-1).
Assay [10] deals with HIV-1 Env of pseudovirus MGRM-F1-008 (HIV-1).
The target in assay [11] is HIV-1 Env of pseudovirus MGRM-F1-010 (HIV-1).
Assay [12] addresses HIV-1 Env of pseudovirus MGRM-G-011 (HIV-1, clade G isolate MGRM-G-011).
In assay [13] the target is HIV-1 Env of pseudovirus MGRM-G-024 (HIV-1, clade G isolate MGRM-G-024).
Assay [14] addresses HIV-1 NL43 envelope glycoprotein (Env) on pseudovirus (HIV-1).
Assay [15] deals with HIV-1 envelope glycoprotein (Env) of isolate 94KE105, listed under clade A (HIV-1).
The target of assay [16] is HIV-1 envelope glycoprotein (Env) of isolate MGRM-A-007, clade A (HIV-1).
Assay [17] has as its target HIV-1 envelope glycoprotein (Env) of isolate MGRM-A-012, clade A (HIV-1).
Assay [18] addresses HIV-1 envelope glycoprotein (Env) of isolate MGRM-A-014, clade A (HIV-1).
In assay [19] the target is HIV-1 Env of isolate 6535.3 (subtype B pseudovirus) (HIV-1).
Assay [20] addresses HIV-1 Env of isolate 92UG114 (pseudovirus) (HIV-1).
For assay [21], the target named is HIV-1 Env of isolate 98CN009 (pseudovirus) (HIV-1).
The target of assay [22] is HIV-1 Env of isolate 98IN022 (HIV-1).
Assay [23] concerns the target HIV-1 Env of isolate MGRM-AG-012 (HIV-1).
In assay [24] the target is HIV-1 Env of isolate MGRM-Chronic-B-001 (subtype B pseudovirus) (HIV-1).
Assay [25] deals with HIV-1 Env of isolate MGRM-Chronic-B-020 (subtype B pseudovirus) (HIV-1).
Assay [26] concerns the target HIV-1 Env of isolate THR0.18 (subtype B pseudovirus) (HIV-1).
For assay [27], the target named is HIV-1 Env of isolate TRO.11 (subtype B pseudovirus) (HIV-1).
For assay [28], the target named is HIV-1 93IN905 Env (pseudovirus, clade C) (HIV-1).
In assay [29] the target is HIV-1 Env of isolate MGRM-AG-005 (clade AG), on pseudovirus (HIV-1).
The target in assay [30] is HIV-1 Env of isolate MGRM-D-018 (clade D), on pseudovirus (HIV-1).
Assay [31] deals with HIV-1 MGRM-C-027 Env (pseudovirus, clade C) (HIV-1).

With 2F5 (antibody), the IC50, pseudovirus neutralization in [1] turned out to be 3.79 µg/mL; in [14], 2.41 µg/mL. Also, the IC50 (µg/ml), pseudovirus neutralization in [2] was over 50 µg/mL; in assay [3], over 50 µg/mL; in assay [4] it was 9.85 µg/mL; in assay [5], 0.14 µg/mL; in assay [6], over 50 µg/mL; in [7], over 50 µg/mL. For the same substance, the IC50 (µg/ml), pseudovirus neutralization in [9] is 17.6 µg/mL; in [10] it was 1.61 µg/mL; in assay [11], 14.6 µg/mL; in assay [12] it was 1.16 µg/mL; in assay [13], 1.07 µg/mL; in assay [15], over 50 µg/mL. Besides, the figures for the IC50 (µg/ml), pseudovirus neutralization in assay [16], in assay [17] and in assay [18] were 16.3 µg/mL, 2.36 µg/mL and 1.43 µg/mL, respectively. Besides, the IC50 (as a rule, the concentration that inhibits the measured activity by half) in assay [8] turned out to be 0.33 µg/mL.
For the substance 2G12 (antibody), the IC50, pseudovirus neutralization in [1] is over 50 µg/mL; in assay [14], 0.75 µg/mL. The IC50 (µg/ml), pseudovirus neutralization is over 50 µg/mL in [2]; over 50 µg/mL in [3]; over 50 µg/mL in assay [4]; over 50 µg/mL in [5]; 0.84 µg/mL in assay [6]; 7.9 µg/mL in assay [7]. For the same substance, the IC50 (µg/ml), pseudovirus neutralization in assay [9] is 0.22 µg/mL; in assay [10], over 50 µg/mL; in assay [12], over 50 µg/mL; in assay [13], over 50 µg/mL; in [15], 7.22 µg/mL; in assay [16], over 50 µg/mL. Besides, the IC50 (µg/ml), pseudovirus neutralization in assay [17] and in assay [18] was over 50 µg/mL in each case. The same substance came in with an IC50 in assay [8] of 1.94 µg/mL.
With 4E10 (antibody), the IC50, pseudovirus neutralization in assay [1] was found to be 9.7 µg/mL; in assay [14], 4.95 µg/mL. In addition, the IC50 (µg/ml), pseudovirus neutralization stood at 2.46 µg/mL in assay [2]; 42.9 µg/mL in [3]; 15.4 µg/mL in assay [4]; 0.04 µg/mL in [5]; 6.35 µg/mL in [6]; 5.76 µg/mL in assay [7]. Besides, the IC50 (µg/ml), pseudovirus neutralization in [9] is 48 µg/mL; in assay [10], 2.75 µg/mL; in [11], 3.69 µg/mL; in [12] it was 1.44 µg/mL; in [13], 1.57 µg/mL; in assay [15], 7.63 µg/mL. Further, the IC50 (µg/ml), pseudovirus neutralization in assay [16] stood at 1.82 µg/mL; in assay [17], 4.27 µg/mL; in [18], 1.74 µg/mL. In assay [8], this substance gave an IC50 of 0.86 µg/mL.
As for 4838_L06 (PGT-121) (antibody), the IC50 (µg/mL), pseudovirus neutralization in assay [19] was 0.005 µg/mL; in assay [24], 0.102 µg/mL; in assay [25], 0.004 µg/mL; in assay [26], over 50 µg/mL; in assay [27] it was 0.008 µg/mL. Besides, the figures for the IC50, pseudovirus neutralization in [20] and in assay [21] were 0.004 µg/mL and 0.009 µg/mL, respectively. The substance also registered a neutralization IC50 in assay [22] of 0.007 µg/mL. In assay [23], this substance had an IC50 of over 50 µg/mL.
Turning to 4858_P08 (PGT-123) (antibody), the IC50 neutralization amounted to 0.0071 µg/mL in assay [28] and 0.0169 µg/mL in assay [31]. For the same substance, the values for the neutralization IC50 in assay [1], in assay [22] and in [14] were 0.846 µg/mL, 0.011 µg/mL and over 10 µg/mL, respectively. Besides, the neutralization IC80 is 3.29 µg/mL in [1] and over 10 µg/mL in assay [14]. The neutralization IC90 in [1] was 8.56 µg/mL; in [14], over 10 µg/mL. Moreover, the neutralization IC95 in [1] and in assay [14] was over 10 µg/mL each time. The IC50 (µg/mL), pseudovirus neutralization in assay [19] is 0.004 µg/mL; in [24], 0.15 µg/mL; in assay [25], 0.005 µg/mL; in assay [26], over 50 µg/mL; in assay [27] it was 0.008 µg/mL. The IC50, pseudovirus neutralization in [20] was determined as 0.005 µg/mL; in assay [21], 0.007 µg/mL; in [29], 0.104 µg/mL; in assay [30], 0.0047 µg/mL. Further, the IC50 in assay [23] is over 50 µg/mL.
Take 4877_D15 (PGT-122) (antibody): the IC50 neutralization in assay [28] stood at 0.0138 µg/mL; in assay [31], 0.0388 µg/mL. For the same substance, the IC50 (µg/mL), pseudovirus neutralization in assay [19] is 0.006 µg/mL; in assay [24], 0.138 µg/mL; in assay [25] it was 0.005 µg/mL; in [26], over 50 µg/mL; in assay [27], 0.011 µg/mL. The IC50, pseudovirus neutralization in assay [20] is 0.011 µg/mL; in assay [21] it was 0.013 µg/mL; in [29], over 10 µg/mL; in [30], 0.0115 µg/mL. For the same substance, in assay [22], the neutralization IC50 is 0.032 µg/mL. In addition, in [23], the IC50 is over 50 µg/mL.
Regarding 5123_A06 (PGT-125) (antibody), the IC50 neutralization was 0.0137 µg/mL in assay [28] and over 10 µg/mL in [31]. Further, the IC50 (µg/mL), pseudovirus neutralization is 0.01 µg/mL in [19]; over 50 µg/mL in assay [24]; 0.087 µg/mL in assay [25]; over 50 µg/mL in assay [26]; 0.111 µg/mL in assay [27]. Moreover, the IC50, pseudovirus neutralization in [20] was 0.349 µg/mL; in assay [21] it was 0.03 µg/mL; in [29] it was over 10 µg/mL; in [30], 0.0382 µg/mL. Further, in assay [22], the neutralization IC50 came out at 22.1 µg/mL. Also, in assay [23], the IC50 is over 50 µg/mL.
Consider 5141_B17 (PGT-126) (antibody), for which the IC50 neutralization in [28] came out at 0.0194 µg/mL; in assay [31], 1.14 µg/mL. Moreover, the IC50, pseudovirus neutralization was 0.0091 µg/mL in assay [1]; 0.038 µg/mL in assay [20]; 0.019 µg/mL in assay [21]; 1.35 µg/mL in [29]; 0.0093 µg/mL in assay [30]; over 10 µg/mL in assay [14]. Further, the IC80 (pseudovirus neutralization) in [1] is 0.0316 µg/mL; in [14], over 10 µg/mL. Moreover, the IC90 (pseudovirus neutralization) in assay [1] is 0.0655 µg/mL; in [14] it was over 10 µg/mL. The values for the IC95 (pseudovirus neutralization) in [1] and in [14] were 0.128 µg/mL and over 10 µg/mL, respectively. Further, the IC50 (µg/mL), pseudovirus neutralization was 0.022 µg/mL in assay [19]; over 50 µg/mL in assay [24]; 0.021 µg/mL in assay [25]; over 50 µg/mL in assay [26]; 0.041 µg/mL in assay [27]. The substance further displayed a neutralization IC50 in assay [22] of 0.279 µg/mL. Moreover, the IC50 in assay [23] is over 50 µg/mL.
Regarding 5145_B14 (PGT-127) (antibody), the IC50 (µg/mL), pseudovirus neutralization was 0.02 µg/mL in assay [19]; over 50 µg/mL in assay [24]; 0.05 µg/mL in [25]; over 50 µg/mL in assay [26]; 0.079 µg/mL in assay [27]. In addition, the figures for the IC50, pseudovirus neutralization in assay [20] and in [21] were 7.09 µg/mL and 0.09 µg/mL, respectively. The neutralization IC50 in [22] worked out at 19.2 µg/mL. This substance gave an IC50 in assay [23] of over 50 µg/mL.
